Test results published in US20090239794A1, “HCV F PROTEIN AND USES THEREOF” (priority 2004, published 2009).

Experiments:
[1] = target: Fmut8Δ11 protein (recombinant ARFP (hepatitis C virus subtype 1a (HCV-1a)) (UniProt P0C045)); assay: ELISA Control 4: ARFP, no first antibody, secondary alone; row 1/50
[2] = target: Fmut8Δ11 protein (recombinant ARFP (hepatitis C virus subtype 1a (HCV-1a)) (UniProt P0C045)); assay: ELISA Control 4: ARFP, no first antibody, secondary alone; row 1/100
[3] = target: Fmut8Δ11 protein (recombinant ARFP, truncated HCV-1a F protein lacking the first 11 N-terminal amino acids) (HCV-1a) (UniProt P0C045); assay: ELISA Control 4: ARFP, no serum, secondary antibody alone; row 1/50
[4] = target: Fmut8Δ11 protein (recombinant ARFP (hepatitis C virus subtype 1a (HCV-1a)) (UniProt P0C045)); assay: ELISA Control 4: ARFP, no first antibody, secondary alone; row 1/800
[5] = target: Fmut8Δ11 protein (recombinant ARFP (hepatitis C virus subtype 1a (HCV-1a)) (UniProt P0C045)); assay: ELISA Control 4: ARFP, no first antibody, secondary alone; row 1/1600
[6] = target: Fmut8Δ11 protein (recombinant ARFP (hepatitis C virus subtype 1a (HCV-1a)) (UniProt P0C045)); assay: ELISA Control 4: ARFP, no first antibody, secondary alone; row 1/400
[7] = target: Fmut8Δ11 protein (recombinant ARFP, truncated HCV-1a F protein lacking the first 11 N-terminal amino acids) (HCV-1a) (UniProt P0C045); assay: ELISA Control 4: ARFP, no serum, secondary antibody alone; row 1/800
[8] = target: Fmut8Δ11 protein (recombinant ARFP, truncated HCV-1a F protein lacking the first 11 N-terminal amino acids) (HCV-1a) (UniProt P0C045); assay: ELISA Control 4: ARFP, no serum, secondary antibody alone; row 1/200
[9] = target: Fmut8Δ11 protein (recombinant ARFP, truncated HCV-1a F protein lacking the first 11 N-terminal amino acids) (HCV-1a) (UniProt P0C045); assay: ELISA Control 4: ARFP, no serum, secondary antibody alone; row 1/400
[10] = target: Fmut8Δ11 protein (recombinant ARFP (hepatitis C virus subtype 1a (HCV-1a)) (UniProt P0C045)); assay: ELISA Control 4: ARFP, no first antibody, secondary alone; row 1/200
[11] = target: Fmut8Δ11 protein (recombinant ARFP, truncated HCV-1a F protein lacking the first 11 N-terminal amino acids) (HCV-1a) (UniProt P0C045); assay: ELISA Control 4: ARFP, no serum, secondary antibody alone; row 1/1600
[12] = target: Fmut8Δ11 protein (recombinant ARFP, truncated HCV-1a F protein lacking the first 11 N-terminal amino acids) (HCV-1a) (UniProt P0C045); assay: ELISA Control 4: ARFP, no serum, secondary antibody alone; row 1/100

With “AP conjugated goat anti-mouse Ig [G, A, M] (antibody)” as the substance, how does the OD410 [1] read?
The OD410 was 0.194 OD410.

And the OD410 [2]?
The OD410 was 0.127 OD410.

And the OD410 [3]?
Its OD410 is 0.131.

What about the OD410 [4] of the same substance?
The OD410 was 0.109 OD410.

What about the OD410 [5] of the same substance?
Its OD410 is 0.109 OD410.

What about the OD410 [6] of the same substance?
Its OD410 is 0.11 OD410.

What about the OD410 [7] of the same substance?
The OD410 was 0.112.

And the OD410 [8]?
Its OD410 is 0.108.

What about the OD410 [9] of the same substance?
Its OD410 is 0.111.

And the OD410 [10]?
The OD410 was 0.106 OD410.

What about the OD410 [11] of the same substance?
Its OD410 is 0.111.

And the OD410 [12]?
The OD410 was 0.129.
